Test: label from the status in PepcDB records

Sequence	protein production
MKKGFVSIIIPSYNEASNIKLIYESLRNEFQSIDYDYEIYYINDGSTDRTLEEIKKLAEKSEHVKYISFSRNFGKEAAILAGFQHARGDAVVVMDADLQHPTYLLHDFIKGYEEGYDQVVAQRNRKGDNPVRSYLSSLYYRFINNAVEVDLRDGVGDFRLLSRKAVNAMLKLSEGNRFSKGLFCWIGFDQKIVYYENVERKNGKSKWSFRHLLNYGIDGIVSFNNRPLRMCFYAGIFILFLSLIYIAATFIRILKYGVIVPGYFTIISAVLFLGGVQLLSLGIIGEYIGRIYYETKKRPHYLIQEANIAHGETHENRES	failed
MKKGRGYVYKLEYHLIWATKYRHQVLVDEVADGLKDILRDIATQNGLELVALEVMPDYVHLLLGATPQHVIPDFVKALKGASARRMFSAFPHLKQPHWGGNLWNPSYCVLTVSEHTRAQIQQYIENQHAAE	not failed
MKKIAFGCDHVGFILKHEIVAHLVERGVEVIDKGTWSSERTDYPHYASQVALAVAGGEVDGGILICGTGVGISIAANKFAGIRAVVCSEPYSAQLSRQHNDTNVLAFGSRVVGLELAKMIVDAWLGAQYEGGRHQQRVEAITAIEQRRN	not failed
MKKIAIFGSAFNPPSLGHKSVIESLSHFDLVLLEPSIAHAWGKNMLDYPIRCKLVDAFIKDMGLSNVQRSDLEQALYQPGQSVTTYALLEKIQEIYPTADITFVIGPDNFFKFAKFYKAEEITERWTVMACPEKVKIRSTDIRNALIEGKDISTYTTPTVSELLLNEGLYR	not failed
MKKIAVFADVQNLYYTVRQAYGCHFNYAALWADISKRGEIVHAFAYAIDRGDSKQQQFQQILRNLGFTVRLKPYIQRSDGSAKGEWDVGITIDIMDFAPQVDEVVLASGDGDFDMLLDRVISKHGVEAVAYGVPGLTANSLIRAASRYVPIEGALLLK	not failed
MKKIAVTYGEEKYSYADIIKYVNYYSEFLDISKGDRVALMMENRPESIFSFFSIWAKKGIALSLDAGYTVEQLAFVLNDSKPKYIFVSNKIKEVVEKANEQVGNIVKIMVVDEITLPTDYVIKQEEYENDSNEDLAVIVYTSGTTGNPKGVMITYELEHHHHHH	not failed
MKKILCAVLLLFTGASWANSDDLETSGDVVHLLLPATALGATLFYEEGHEGSWQLLKAAVSSRVIVEGLKLGVNKDRPDGSGDDSFPSGHTSDSFMAATFIQQRYGWQYGLPAYLAASYVGYTRVESDKHYVEDVLAGAAIGMLAGWYFTEPYKGITVTPLAHNGVYGLYISGQF	failed
MKKKLVIILSIICIIAGGYFTMEYLKHKEKEEFFWKTQETRVEKYIHYNVKDVKSITFIEHKISPMGIPSIEGYINDDKDLWFDASISTTENFEDKFSRSGELGKLIKDPEKSVSEIEKEEKEKKKELEHHHHHH	not failed
MKKKMITALGVSAIILTNFVGSTYADSKIGVSVTAPYNKNQIAEWLEMHAKPLKTTNPNAPFNDLKPFKNMVGSASIVGLGEATHGAHEVFTMKNRIVNYLVSEKGFTNLVLEEGWDRALELDRYVLTGEGNPSQHLSPVFKTKEMLDLLNWIRQYNANPKHKSKVRIIGMDIQSVNENVYNNIIEYVKRTNSKLVPRIEEKIKGLIPVTKDMNTFESLTKEEKEKYISDAKQISAVLEENKSYLNGKSKEFAWIKQNARIIEQFTTMLTSPPDKPSDLFLKHDIAMYENAKWTEEHLGKTIVWGHNGHVSKTNMLPFVYPKVAGQYLAEYYGKRYVSIGTSVYEGQYNVKNSDGEFGPYGILKSDDPNSYNYIFGQVKKDQFFIDLRKANGVTKNWLNEQHPIFAGVTTEGPGIPKTVDISLGKAFDILVQIQKVSPSQLHQLEHHHHHH	failed
MKKLAIAISTILLSGAAYAGNTADVELFNADDNDVNIFQMSPAVGNDADVLIRNSDENEVDIYQMGRHNDAVVRVRNGSDDNDLMIDQDGRHNRAVLKARLGSDENDFAIEQDGRLNLGKVIADDSDNNNGLIDQRGRRNEAYINFDSASDNSNNKIVQRGRRNEGEISVMGGSNNGTLKIRQKGHDNDSKIHVYGGSGNEALTKINGDDNTTYTAFYAGASDNDTTILMKNDSLDNTVYAVVVGGSFNEADVTIDSSNDNFVSVAQWGDSSMAEVTLENGSNDNWIMINQTNNDMATVTADNSSYNAVVITQL	failed
MKKLIVDLDGTLTQANTSDYRNVLPRLDVIEQLREYHQLGFEIVISTARNMRTYEGNVGKINIHTLPIITEWLDKHQVPYDEILVGKPWCGHDGFYIDDRAVRPSEFASMNLEEIHQLFEKEKSCS	not failed
MKKLKRAYKMEINPTDEQKSKIHQTIGVSRFIYNFYIARNKEIYEKEGKFVSGMDFSKWLNNEYIPNNQEMKWIKEVSSKATKQAIMNGDKSFRDFFKKAKGFPRFKKKKNQDVKAYFPKNNKTDWTIERHRVKIPTLGWVRLKEFGYIPTNSIVKSGTVSQKADRYYVSILVEETDIKISNSNIGIKIFNHNNEGIGIDLGIKDFAICSNGNKFKNINKTSTIKKVEKNLKREQRKLSRKYESLKIRNKKEKGGNVTRQNIQKQIVKVQKLHQRLTNIRTDYINKIVSSIIKQKPSYITIEDLNVKGMMKNKHLSKAIASQKFFEFKTKLMSKCKQNDVELRIVDRFYPSSKTCSQCGEIKKDLKLSDRVYKCSCGLVIDRDLNASINLRNAKEYKIALEHHHHHH	not failed
MKKNYMKALVVATTLAIPFATYSTPALAALKVEANQSVAAASDRTYDTEIKIYKDQKDEPSMVSQYIKDPKVTIAAGKKIVTVTMQDSDYFQYLRIEDKNQPGVFHDVKVLSEDKRKNGTKVVQFEIGEFEKKHNMQMHILIPAIGYDHKYQVQFEIKDPTVGNKETEKPDDNSNSGNTETDNPVDNQNMITDNKLRELVNKKVFNRKDLNTPITKEDLLQVKDLFLNTNEILDYSALKYMPNLKSLTVANAKIKDPSFFANLKQLNHLALRGNEFADVTPLVKMDNLESLDLSNNKITNVAPLTEMKNVKSLFLSGNQIEDVTALAKMEQLDYLNLANNKITNVAPLSNLKNVTYLTLAGNQIEDIKPLYTLPLKDLVLTRNKVKDLSGIDQLNQLQELWIGKNEITDVTPLSKMTQLKILNLPNNELKDITPLSSLVNLQKLDLEANYISDLSPVSNLKKLVFLSFVANEIRDVRPVIELSKTAYINVQNQKVFLEETEVNKEVKVPIYEKDGEISTKIRLKSDNGTYSNGVVKWSTPGEKVYEFGVKDPFADTGIFFTGSVIQNVVESKDGNTSKEDEKTEVVEFKDVPKGHWSEEAINYLAKEKLFIGYGNGEFGFGDNITRGQVALLIQRYLKLENNLEQKTAFTDTKGNMYETAIDAVVQAGIMTGYGNGMFRPDGVLTRYEMSVVLQRVFQLKENENSAENFKDVPNGHWAKGYVKALVDNKISKGDGEGNFLGDNFVTREQYAQFLYNAIKK	failed
MKKPKFLSLQEDDTFEKMRQSRLQKNKRKRDSGLNVFEEVVKDLTYGYMKIGDGDEIYGKHRKKKRVSKAKELEMAMTLEALKKDQEKGDIVAKNHSWQAAISRAAGIKIHDDPKRLKKRIHKETKMREKNTEKWKERVDVQQKFRAEKQQKRSENVIDRIQQKKMRKIAKREKKLLRPGY	failed
MKKPVHDMRQHIIDVARSLMTNKGYTAVGLAEVLITAGVPKGSFYYYFKSKEEFGQALLEEYFSEYLGRVDALMARPGTGAERLLAYFMYWSETQGTDLPEGKCLVVKLGAEVCDLSEDMRCVLEVGTAKIIQRISACVEMGVSDGSIHPEGDHQGFAESLYQLWLGASLLVKVNKSTESFDKALNMTKRLLK	failed
MKKRAVLILSMMLAAQAAFYTSSNTASAAIGEAVIATDEINVRSGPGLSHEIVSVVSRNESYPILEERGDWVQIQLNGGQKGWVVSWLIKKKSQVSSGSDSASGKVTSSEANLRIRKGPGTSYEVQGVFPEGEQADLLKTDGKWIKISYQNITGWVYSDYVNQGSGAKQSQSSSSHASSSKSGTVGVSTLNVRSTASHQGRIIATLQRNASVTILNEQHGWYEIEFNGQKGWAASHYILEGNKQNSGTSETSSSSEAKRQATIVYEGTNVRSGPSTSSAIVKRTGKGESYPIVSTKGDWYEIKLSNGDSAYVASWVVQTVDQAGSAGDSKSAAPPLAKRSSSGGTIKNKTVVIDAGHGGHDSGTIGTRGTLEKRLTIKTATLLAAKLRADGVNVYMTRNDDSFVSLQSRVATSHYRNADAFISIHYDSFPNASVRGNTAYYYSPSKDRKLAADVQSEIERHSPLPSRGVLFGDYFVLRENKQPAALFELGYLSHPQEEAVVSTNAYRERVTDGIRSGLENYFD	failed
MKKRHLLIAGLACMTILGACNNDDAGSSGQAVVEVDGHEISDAEFVDMLKERYGEAILQELVQRHLISQAADSVEIPQEEIDEELETFKSQIGVETDDEMLDALSNQFGITVENKEEFVNEYILPPLVLEKLAVEGVEITDEEKQAYFDENRDSLIEVEASHILVEDEETAEEVLDRLEAGDDFAELASEYSVDPSAEANNGDLGFFGKGDMVPEFEEAAFNMEIDEVSEPVESTYGYHIILVTDRKDSYEELEEKIHDTLMRERSRTQEEVLRDLLAQADINVLDDQFEGLFDLPDAPPVEDTPEIDGEDASDEAEDQAEDADENAEEEDES	failed
MKKRILAVAVTSMLLSASVFAQETVVPSRVGDLKFESDFPTQETMKNMLNEMDFQRATQAYLWGIPASSIMEWLNVSRNDFKFEEGQMGFFNTLKQKQGIITANFTTPYVIGTWNLEKTGPLIINLPEAKMAGMMLDVHQRVLSDLSLLGPDKGKGGKYLIVPPGEKYKDLNPKGYYVIRPKTNVVYGGIRILEPDVDRVVKQVVPNITTQPYADGKLGRKIPVAQVPEIDWTHIPKDGLEYWKTIHQIIQENPVEERDRFVMAQLKFLGIEKGKPFNPTEEQKKILLEASKVGRAMAQSNDYTKRFTQPYWKGTNWKDAISVSLDQRSENYDELDERAAWFYEAITVSRGMKSTIPGFGQRYLVTYQDSDGNWLSGEHTYKLHVPANVPASNFWSTTVYDENNRLMIINDAGSPDISSRKNLKVNSDGSIDVYYGPKPVKGYENNWVQTNPGEGWFTYFRFYGPTEKMFDKSWTMGDIELVKLEHHHHHH	not failed
MKKRLLLFILVLGVCLFTSCGNFVKTNIYFSAAESAFDSGKYEDAIKYYDKVIEADSGNAMAYLGKGLALDALGKYEEALEFFDKAIEINKDLAKAYNAKGTTLASLERYEESLENFKKAAELKPKNSAYQNDVAYGLNNLGRFEEAIQYAEKALKLNPRSGVAYSNKGFALDALGKLDEAIECYDKAIELSPTYTNAYYNKSIAVFKMGKTEEAIELLDKVLEIDPDDLDAITSKGYCLNELGKYEKAIECFDTAIEKYPKDPYPYVCKATSLYYLGKYDNALEECNKAIKLEYTFPDSYIWKAKILVEKGDIEEARKSCDEFLAIAEDASVYDMKGQIYLHEYNYPEAIKLFDKAIEVDPSYEDSYINKIYCLYLQKNYKECIEFATKVQTIFPNSADIPWYIGDCYSIMMEPEKAIEYLKKAHELNPKDVGILTSIAWEYYSLEDYAKASEYAEKAAEISADDESVKYIREKLENQKLPEAEQIVEFVKNNYLYYDKIANFEALANEFKAKGEVGVKDICNFIESIRQKDDMFTFVIHGDDYDLLKYEESISQVTSQQLEPNIHYIKIKSFTASVSWEFKEIIDSIENPEEKVLVIDLRDNLGGLATSSADILDYLLPACTTSYIVYRDGYMYSYYSDAAQTKFKKILVLVNEYSASSSEILALGLKKHLNNVVIIGRPTVGKGVGQLVYENKSKKYMIYLVSFYWNVMEENILGKRIEPDVYVNSSSDAAYMNEVKRQAAR	failed
MKKRVQNKRFARTICDGNNPSQIATDLRDICEGEKTRRFSVANFARDNSLAILREICEELARTKKFLAKSLQIARDLQVQILFCGNFCDETYKDRDFAGWLKLYVTNGCENELLLLWLYEIVQEPRSKITTAKSFVVDVNANKTYAKFKPFILASQAFYLTRV	not failed
